The assay concerns the target T1, human IL-2Rβ (CD122 protein, Fc Tag) (27-239) (human, UniProt P14784 27-239).
T1 construct: range 27-239; Bought protein; also called hu-IL-2Rβ subunit; IL-2Rβ subunit; not shown: Fc tag of the bought protein
T1 sequence (looked up): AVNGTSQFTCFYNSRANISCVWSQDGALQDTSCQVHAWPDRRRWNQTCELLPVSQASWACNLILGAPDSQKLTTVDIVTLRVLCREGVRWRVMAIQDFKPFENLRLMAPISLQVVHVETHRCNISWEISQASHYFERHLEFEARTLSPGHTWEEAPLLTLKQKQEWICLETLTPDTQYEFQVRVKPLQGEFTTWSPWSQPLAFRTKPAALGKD
As to the kind of experiment: phage ELISA competition. Put shortly: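 Competitive binding ELISA in which a phage tracer competes with test ligands for human IL-2Rβ-Fc; IC50 is derived from the absorbance signal across the ligand dilution series. Without washing, 50 μL of phage tracer was added for 45 min at 4° C. Bound phage was detected with TMB for 1 to 15 min at 25° C, followed by stop solution and absorbance at 450 nm.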

Bridge positions count the residues as written; N and C are the ends. Ends that are not written are not given here.

In the case of LPCWIAQLGDLCDLEPEPSPE [SEQ ID NO 2750], the IC50 was less than 100 µM.

The molecule WYPCWLAHLGELCDLDWKGRND [SEQ ID NO 2746] registered an IC50 of less than 100 µM.

For IERAWEWRPCWLASVGELCDLE (disulfide 10-19 (inferred)) [SEQ ID NO 2743], the half-maximal inhibitory concentration (IC50) was less than 100 µM.

In turn, WSPCWMASLGDLCDLEETRQTE (disulfide 4-13 (inferred)) [SEQ ID NO 2748] gave an IC50 of less than 100 µM.

In turn, WLPCWLAPLGDLCDMDMSAVMN [SEQ ID NO 2752] registered a 50% inhibitory concentration (IC50) of less than 100 µM. Next, DMFTHRWYPCSMAKLGELCDLE [SEQ ID NO 2735]: less than 100 µM. With WYPCSIASLGELCDLE [SEQ ID NO 2720] the figure was less than 100 µM; with AMARRYLPCWIAKLGELCELD [SEQ ID NO 2739], less than 100 µM; with KNGPKSWYPCWMAQVGDLCDLD [SEQ ID NO 2712], less than 100 µM. With EPRWYPCWMAQMGELCDMEMSD (disulfide 7-16 (inferred)) [SEQ ID NO 2765] the figure was less than 100 µM; with QTWYLPCWMAKLGELCDLGERD [SEQ ID NO 2764], less than 100 µM. Consider WYPCWLAQLGELCDAE [SEQ ID NO 2726], for which the IC50 is less than 100 µM. For the molecule LHAGRWNPCWLAQLGELCDLE [SEQ ID NO 2733], the 50% inhibitory concentration (IC50) is less than 100 µM.

As for WRPCWMAHLGDLCDLEMANENP [SEQ ID NO 2753], the IC50 is less than 100 µM.

For the molecule ESEGRGWYPCWNALLGELCDLE [SEQ ID NO 2731], the IC50 was less than 100 µM. Molecule WKPCWMALLGELCDLE [SEQ ID NO 2727] showed an IC50 of less than 100 µM. Molecule WYPCWMAQLGELCDMD [SEQ ID NO 2706] displayed an IC50 of less than 100 µM. With WHPCWMARLGELCDLD [SEQ ID NO 2710] the figure was less than 100 µM. The molecule VDEFYPCSMAGLGELCDLERQN [SEQ ID NO 2759] registered an IC50 of less than 100 µM.

As for AWDWYPCSVAALGEICDLDIQD [SEQ ID NO 2760], the IC50 was less than 100 µM.

YLERSRWYPCFIAQLGELCDLE [SEQ ID NO 2741] returned an IC50 of less than 100 µM.

For LSSKGWYPCWKARLGDLCDLE (disulfide 9-18 (inferred)) [SEQ ID NO 2734], the IC50 is less than 100 µM.

In turn, YAEWYPCWMARVGEVCDLEVTP [SEQ ID NO 2704] returned a half-inhibitory concentration (IC50) of less than 100 µM. As to RVSYPCWLARLGELCDMDLEE [SEQ ID NO 2707], the half-maximal inhibitory concentration (IC50) is less than 100 µM. The molecule WHPCWMAQVGEVCDLD [SEQ ID NO 2722] had an IC50 of less than 100 µM.

Regarding QGTKWHWNPCWMAQLGELCDLD (disulfide 10-19 (inferred)) [SEQ ID NO 2711], the IC50 was less than 100 µM. Next, WLPCWMADVGDLCDLD (disulfide 4-13 (inferred)) [SEQ ID NO 2709]: less than 100 µM. The molecule RWTQAQWYPCWLAQLGELCDLE [SEQ ID NO 2732] had an IC50 of less than 100 µM. On to WLPCWRAQLGQLCDLD [SEQ ID NO 2715], for which the IC50 was less than 100 µM.

MYPCWIAHLGELCDLD [SEQ ID NO 2719]: the IC50 was less than 100 µM.

In turn, MTDRAFWNPCWVARLGELCDLD [SEQ ID NO 2736] registered an IC50 of less than 100 µM. For WYPCWLAQLGEVCDLDDGGGVF [SEQ ID NO 2754], the IC50 is less than 100 µM.

Molecule WYPCWMARMGELCDLE [SEQ ID NO 2714] gave an IC50 of less than 100 µM. WLPCYMAQLGDLCDLE [SEQ ID NO 2721]: the IC50 was less than 100 µM. Next, WWPCSIARLGQLCDLD [SEQ ID NO 2724]: less than 100 µM.

The molecule WYPCWRAQLGELCDLVDLGSHL [SEQ ID NO 2747] came in with an IC50 of less than 100 µM. Next, WYPCWLASLGEVCDLE [SEQ ID NO 2723]: less than 100 µM. With TESWYPCWLANLGDLCDLEWSA (disulfide 7-16 (inferred)) [SEQ ID NO 2708] the figure was less than 100 µM; with EEQSRGFLPCWMALLGELCDLD [SEQ ID NO 2729], less than 100 µM.

Molecule ARGEYRWFPCWMARLGELCDLE [SEQ ID NO 2740] had an IC50 of less than 100 µM. In turn, NVTYTQWFPCWLARLGELCDLV (disulfide 10-19 (inferred)) [SEQ ID NO 2737] yielded an IC50 of less than 100 µM. With LGSKRQWYPCWVAHLGELCDLE [SEQ ID NO 2730] the figure was less than 100 µM; with RYPCWRAKLGELCDLD [SEQ ID NO 2728], less than 100 µM; with HQGFYSCRLARLGELCDLDTGW [SEQ ID NO 2758], less than 100 µM. For SGTGPAWYPCFLASLGQLCDLE [SEQ ID NO 2713], the IC50 was less than 100 µM. Next, FYPCWAAHLGDLCDLEYQEAGP [SEQ ID NO 2751]: less than 100 µM; RPPWYPCWMARLGEVCDMDIML [SEQ ID NO 2761]: less than 100 µM; KGSWQPCWFAKLGELCDLHPTS [SEQ ID NO 2763]: less than 100 µM. With VASERFYPCWIARLGELCDVE [SEQ ID NO 2744] the figure was less than 100 µM; with RYPCWIAQLGELCDLD [SEQ ID NO 2717], less than 100 µM; with WTPCWIAQLGELCDLEGRHGTV [SEQ ID NO 2749], less than 100 µM.

FRVSRDWFPCWMAQLGEVCDLE [SEQ ID NO 2742] yielded an IC50 of less than 100 µM. As for TEMWYPCWMAYQGELCDLDMTY [SEQ ID NO 2756], the IC50 is less than 100 µM. On to ARTWWPCWRAKLGELCDLVVPE [SEQ ID NO 2757], for which the IC50 was less than 100 µM. Next, WWPCWLAQLGELCDLEVNGSLI [SEQ ID NO 2755]: less than 100 µM; LFPCWLAQLGELCDLE [SEQ ID NO 2716]: less than 100 µM.

For RSGDKAFFPCWLAQLGDLCDLD [SEQ ID NO 2705], the IC50 was less than 100 µM. With SQRWYPCWVAHLGELCDLEGVV [SEQ ID NO 2762] the figure was less than 100 µM.

The record behind these values is patent US20220119492A1 (MEDIKINE, published 2022).
